In assay [1] the target is Drosophila Plk4 cryptic polo box (DmPlk4 CPB), aa 383-601 (Drosophila) (UniProt O97143). Put plainly: MST.
Assay [2] concerns the target ZYG-1 cryptic polo box (CPB), aa 338-564 (C. elegans) (UniProt Q9GT24). The experiment in a line: MST.

Drawing on article PMC4126857, this text covers Kd for two substances.

Drosophila Plk4 cryptic polo box (DmPlk4 CPB), aa 383-601 (Drosophila), sequence (O97143 383-601): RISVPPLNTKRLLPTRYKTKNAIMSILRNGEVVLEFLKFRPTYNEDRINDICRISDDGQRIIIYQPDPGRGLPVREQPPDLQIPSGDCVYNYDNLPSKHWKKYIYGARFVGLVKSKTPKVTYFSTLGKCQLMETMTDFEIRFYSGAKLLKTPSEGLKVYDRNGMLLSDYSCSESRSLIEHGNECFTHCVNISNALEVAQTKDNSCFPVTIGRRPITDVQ
ZYG-1 cryptic polo box (CPB), aa 338-564 (C. elegans), sequence (Q9GT24 338-564): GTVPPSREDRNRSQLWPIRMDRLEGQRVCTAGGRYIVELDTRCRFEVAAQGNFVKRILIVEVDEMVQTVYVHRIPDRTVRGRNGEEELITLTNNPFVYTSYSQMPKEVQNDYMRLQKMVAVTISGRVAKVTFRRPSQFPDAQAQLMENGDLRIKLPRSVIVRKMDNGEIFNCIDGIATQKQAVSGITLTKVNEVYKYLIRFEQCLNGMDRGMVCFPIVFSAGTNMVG

Take “MmAsl acidic region (MmAsl AR), MST ligand (from UniProt A2AUM9 1-1736) (domain or fragment)”: the Kd (usually the constant that tells how readily two partners part at equilibrium) in assay [1] was 0.72 µM.
With “MmSPD-2 acidic region (MmSPD-2 AR), MST ligand (from UniProt E9Q4Y4 1-2514) (domain or fragment)”, the Kd was 5.17 µM in assay [2] and 0.53 µM in assay [1].
